# Measurements: the nanobody polyreactivity screen of Harvey et al. (2022)
# Test: yeast display, Sf9 membrane polyspecificity reagent, FACS + sequencing; frameworks hold sequencing errors
# Summary of the method: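 A nanobody's polyreactivity label depends on the gate it was sorted from. Yeast display cells were stained with 10% biotinylated, detergent-solubilized Sf9 membrane reagent for 1 hour at 4 °C, enriched on streptavidin microbeads and sorted by FACS. The low and high (top ~1%) gates were set on anti-HA fluorescence for expression and streptavidin fluorescence for reagent binding.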
row,Sequence,polyreactivity (PSR sort gate)
1,QVQLVESGGGLVQAGGSLRLSCAASGFNFRYNTMGWYRKAPRKERELVAAISVSGARTYYADSVKGRFTISRDNAKNTVYLQMNSLKPEDTAVFYCNRRYTFYSRYNNDYWGQGTQVTVSS,high polyreactivity
2,QVQLVESGGGLVQAGGSLRLSCAASGFNFSKYAMGWYRQAPGKERELVARINYNGGSTYYADSVKGRFTISRDNAKNTVYLQMNSLKPEDTAVYYCALVWRFSTRYYYWGQGTQVTVSS,high polyreactivity
3,QVQLVESGGGLVQAGGSLRLSCAASGFNFVHYAMGWYRPAPGKDRELVAAISKRGGTTYYADSVKGRFTISRDNAKNTVYLQMNSLKPEDSAVYYCNADVTNWEDDYYYWGQGTQVNVSS,high polyreactivity
4,QVQLVESGGGLVQAGGSLRLSCAASGFNFVSYAMGWYRKAPGKERELVAVIDNSDGDTYYADSVKGRFTISRDNAKNTVYLQMNSLKPEDTAVYYCARDVSARGYLPFDYWGQGTQVTVSS,low polyreactivity
5,QVQLVESGGGLVQAGGSLRLSCAASGFNFVYYAMGWYREAPGKERELVAVISWSGGSTNYADSVKGRFTISRDNAKNTVYLQMNSLKPEDTAVYYCAADAYAYTPYYGYRVDYWGQGTQVTVSS,high polyreactivity
6,QVQLVESGGGLVQAGGSLRLSCAASGFNFWRNAMGWYRQAPGKERELVAVITWSGGRTYYADSVKGRFTFSRDNAKNSVYLQMNSLKPEDSAVYYCSTEIVGPHFDYWGQGTQVTVSS,low polyreactivity
7,QVQLVESGGGLVQAGGSLRLSCAASGFNYYTMGWYRQAPGKERELVAAINYSGGRTYYADSVKGRFTISRDNAKNTVYLQMNSLKPEDTAVYYCNTARSPYDHRPERSYDYWGLGTQVTVSS,high polyreactivity
8,QVQLVESGGGLVQAGGSLRLSCAASGFSFARNAMGWYRQAPGKERELVAAISDSGGRTYYADSVKGRFTISRDIAKNTVYLQMNSLKPEDTAVYYCAAALTFRMDYWGQGTQVTVSS,high polyreactivity
9,QVQLVESGGGLVQAGGSLRLSCAASGFSFKRYAMGWYRQAPGKERELVADITRGGRTNYADSVKGRFTISRDNAKNTVYLQINSLKPEDTAVYYCNAVRQKYRFEYDYWGQGTQVTVSS,high polyreactivity
10,QVQLVESGGGLVQAGGSLRLSCAASGFSFKYYAMGWYRQAPGKERELVATIRRGGSTYADSVKGRFTISRDNAKNSVYLQMNSLKPDDTAVYYCATRISSSTVPLYYFSGYNYWGQGTQVTVSS,high polyreactivity
11,QVQLVESGGGLVQAGGSLRLSCAASGFSFRQYAMGWYRQAPGKERELVAAISRSGSRTYYADSVKGRFTLSRDNAKNTGYLQMNSLKAEDTAVYYCNAVFSTFTGEYYWGQGTQVTVSS,high polyreactivity
12,QVQLVESGGGLVQAGGSLRLSCAASGFSFSDYPMGWYRQAPGKERELVAAISGSGGSTYYADSVKGRFTISRDTAKNSVYLQMNSLKPEDTSVYYCNKGYARRYASGYDYWGQGTQVTVSS,high polyreactivity
13,QVQLVESGGGLVQAGGSLRLSCAASGFSIYRNSMGWYRPAPGKERELVAGISSGGSTNYADSVKGRFTISRDNAKNTVYLQMNSLKPEDTAVYYCATRVYALWFGRYDYWGQGTQVTVSS,high polyreactivity
14,QVQLVESGGGLVQAGGSLRLSCAASGFTAVGNAMGWYRPAPGKERELVASITNGGSTNYADSVKGRFTISRDNAKNTVYIQMNSLKPEDTAVYYCATDTYFDYTGALSHSGYYYWGQGTQVTVSS,low polyreactivity
15,QVQLVESGGGLVQAGGSLRLSCAASGFTCPSYNMRWYRQAPGKERELVAAISRSDGNTYYADSVKGRFTISRDNAKNTVYLQMNSLKPEDTEVYYCAAEYEAYAYEYWGQGTQVTVSS,high polyreactivity
16,QVQLVESGGGLVQAGGSLRLSCAASGFTCPYYMGWYRQAPGKERELVADISWSDGSTYYADSVKGRFTISRDNAKNTVSLQMNSLKPEDTAVYYCAADYVSSWFYLPEYDYWGQGTQVTVSS,high polyreactivity

row,Sequence,polyreactivity (PSR sort gate)
1,QVQLVESGGGLVQAGGSLRLSCAASGFTFADNAMGGYREAPGKERQFVASITYSTGSTYADSVKGRFTISRDNAKNTVYLQMHSLTPEDTAVYYCAVDNISNWAVENDYWGQGTQVTVSS,low polyreactivity
2,QVQLVESGGGLVQAGGSLRLSCAASGFTFAFYAMGWYRQAPGKERELVAAISRRGGSTTYADSVKGRFTISRDNAKNTVYLQMNSLKPEDTAVYYCAAGWRGGRYRYFAYDYWGQGTQVTVSS,high polyreactivity
3,QVQLVESGGGLVQAGGSLRLSCAASGFTFAGYAMGWYRQAPGKDRELVAAISWSGGRTYYADSVKGRFTISRDNAKNTVYLQMNSLKPEDTAVYYCAKLTLSSRWYYIYDYWGQGTQVTVSS,high polyreactivity
4,QVQLVESGGGLVQAGGSLRLSCAASGFTFAGYAMGWYRQAPGKERELVAAISISGGRTYYADSVKGRFTSSRDYAKNTVYLQMNSLKPEDTAVYYCNAASREPSGYDYWGQGTQVTVSS,high polyreactivity
5,QVQLVESGGGLVQAGGSLRLSCAASGFTFAGYGMGWYRQAPGKERELVAAISSSGGSTYYADSVKGRFTISRDNAKNTVYLQMNSLIPEDTAVYYCAAGRPYGDGDYWGQGTQVNVSS,high polyreactivity
6,QVQLVESGGGLVQAGGSLRLSCAASGFTFANYAMGWYRQAPGKERELVASITRSGGSTYYADSVKGRFTISRDNAKNTVYLQMNSLKPEDTAVYYCAKDRRRWYYTRDYWGQGTQVTVSS,low polyreactivity
7,QVQLVESGGGLVQAGGSLRLSCAASGFTFAPNPMGWYRPAPGKEWELVAAITRSGGSTYYADSVKGRFTISRDNAKNTVYLQMYSLKPEDTAVYYCNAGRRGSGYVYWGQGTQVTVSS,high polyreactivity
8,QVQLVESGGGLVQAGGSLRLSCAASGFTFAPYDMGWYRQAPGKERELVATISWSGARTYYADSVKGRFTISRDNAKNTVYLQMNSLKAEDTAVYYCAAAYSSSKSSGNYYYWGQGTQVTVSS,high polyreactivity
9,QVQLVESGGGLVQAGGSLRLSCAASGFTFARNAMGWYRQATGKERELVASITQRGGSTNYADSVKVRFTISRDNAQNTVYLQMNSLKPEDTAVYYCNKASQLYYIQGTYSYGYWGQGTQVTVSS,low polyreactivity
10,QVQLVESGGGLVQAGGSLRLSCAASGFTFARNGMGWYRQATVKEREFVAAITRSGGRTYYADSVKGRFTISRDNAKNTVYLQMNSLKPEDTAVYYCAAATSYGKSEYDYWGQGTQVTVSS,high polyreactivity
11,QVQLVESGGGLVQAGGSLRLSCAASGFTFARYALGWYRQAPGKERELVAGITYRGGRTYYADSVKGRFTISRDNEKNTVYLQMNRLKPEDTAVYYCARYGPIKYYSWGQGTQVTVSS,high polyreactivity
12,QVQLVESGGGLVQAGGSLRLSCAASGFTFARYAMGWYRQAPGKERELVAAISRGTTTYYADSVKGRFTISRDNAKNTVYLQMNSLKPEDTAVYYCAARAVSEYFVVPFYYWGQGTQVTVSS,high polyreactivity
13,QVQLVESGGGLVQAGGSLRLSCAASGFTFARYSMGWYRQAPGKERELVAAISRGGDSTYYADSVKGRFTISRDNAKNTVYLQMNSLKPEDSAVYYCAADISHRGYREYYSWGQGTQVTVSS,high polyreactivity
14,QVQLVESGGGLVQAGGSLRLSCAASGFTFASNDMGWYRPAPGKERELVAAITKGGGRTYYADSVKGRFTISRDNAKNTVYLLMNSLKPEDTAVYYCAASQLIKYDYWGQGTEVTVSS,low polyreactivity
15,QVQLVESGGGLVQAGGSLRLSCAASGFTFASYAMGWYRQAPAKEREFVAAITSRGGNTYYADSVKGRFTISRDNAKNTVYLQMNSLKPEDTAVYYCAAKSTYVVSKMNYWGQGTQVTVSS,high polyreactivity
16,QVQLVESGGGLVQAGGSLRLSCAASGFTFASYAMGWYRQAPGKEREFVAAITRSGGSTYYADSVKGRFTISRDNAKNTVYLQMNSLKPEDTAVYYCNRVTSSEFDYWGQGTQVTVSS,high polyreactivity
